Read-outs that look alike come from different tables or passages of the source.
T1: recombinant cyno Tie2 extracellular domain (cynomolgus monkey, UniProt Q02763 23-748 (human entry))
T1 construct: also called Recombinant cyno Tie2 ECD; cy Tie2
T1 chain: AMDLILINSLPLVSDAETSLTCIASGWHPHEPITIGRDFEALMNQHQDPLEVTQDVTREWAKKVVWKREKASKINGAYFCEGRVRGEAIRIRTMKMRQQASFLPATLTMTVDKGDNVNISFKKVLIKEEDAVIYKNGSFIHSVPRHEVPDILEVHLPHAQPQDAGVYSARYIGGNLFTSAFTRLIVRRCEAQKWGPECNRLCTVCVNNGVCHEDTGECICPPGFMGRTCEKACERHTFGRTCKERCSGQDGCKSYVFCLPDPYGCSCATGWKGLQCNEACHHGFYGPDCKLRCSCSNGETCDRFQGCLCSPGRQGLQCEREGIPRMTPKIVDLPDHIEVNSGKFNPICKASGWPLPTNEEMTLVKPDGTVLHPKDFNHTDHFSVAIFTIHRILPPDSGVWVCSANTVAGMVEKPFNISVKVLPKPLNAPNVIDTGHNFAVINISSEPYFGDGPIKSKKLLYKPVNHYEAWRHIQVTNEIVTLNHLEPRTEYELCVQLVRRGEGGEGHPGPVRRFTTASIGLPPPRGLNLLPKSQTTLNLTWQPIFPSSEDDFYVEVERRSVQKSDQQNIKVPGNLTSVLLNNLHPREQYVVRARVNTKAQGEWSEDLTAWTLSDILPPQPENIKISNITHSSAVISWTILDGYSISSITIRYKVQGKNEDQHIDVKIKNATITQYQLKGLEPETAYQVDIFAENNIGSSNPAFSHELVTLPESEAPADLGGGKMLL


Assays:
[1] = biological target: T1, recombinant cyno Tie2 extracellular …; assay: SPR, IgG captured, 37C
Description: (§1) A human antibody capture chip was prepared using a Series S CM5 chip (GE Life Sciences), a human antibody capture kit (GE Life Sciences) and an amine coupling kit (GE Life Sciences). Antibodies diluted to 5 μg/ml in running buffer (10 mM HEPES, 150 mM NaCl, 0.05% Tween 20, 1 mM EDTA, pH 7.4) were non-covalently captured using a contact time of 20 seconds and a flow rate of 10 μl/minute. Binding to 300 nM and 1500 nM recombinant Tie2 was analyzed at 37° C. using a Single Cycle Kinetics method with a contact time of 60 seconds, a dissociation time of 120 seconds and a flow rate of 50 μl/min. Between cycles, the surface was regenerated by a 30 second injection of 3M MgCl₂ at a flow rate of 30 μl/min. Values for antibody capture levels and analyte binding levels were obtained from the Report Point Table (Biacore Evaluation Software v3.0, GE Life Sciences). […] Table 16: Experiment A; Table 17: Experiment B.

[2] = biological target: T2, recombinant human Tie2 extracellular domain (human, UniProt Q02763 23-748); assay: SPR, IgG captured, 37C
T2 construct: whole entry named; also called Recombinant human Tie2 ECD; hu Tie2
Description: as §1
Target sequence in this assay (Q02763 23-748 limits assumed): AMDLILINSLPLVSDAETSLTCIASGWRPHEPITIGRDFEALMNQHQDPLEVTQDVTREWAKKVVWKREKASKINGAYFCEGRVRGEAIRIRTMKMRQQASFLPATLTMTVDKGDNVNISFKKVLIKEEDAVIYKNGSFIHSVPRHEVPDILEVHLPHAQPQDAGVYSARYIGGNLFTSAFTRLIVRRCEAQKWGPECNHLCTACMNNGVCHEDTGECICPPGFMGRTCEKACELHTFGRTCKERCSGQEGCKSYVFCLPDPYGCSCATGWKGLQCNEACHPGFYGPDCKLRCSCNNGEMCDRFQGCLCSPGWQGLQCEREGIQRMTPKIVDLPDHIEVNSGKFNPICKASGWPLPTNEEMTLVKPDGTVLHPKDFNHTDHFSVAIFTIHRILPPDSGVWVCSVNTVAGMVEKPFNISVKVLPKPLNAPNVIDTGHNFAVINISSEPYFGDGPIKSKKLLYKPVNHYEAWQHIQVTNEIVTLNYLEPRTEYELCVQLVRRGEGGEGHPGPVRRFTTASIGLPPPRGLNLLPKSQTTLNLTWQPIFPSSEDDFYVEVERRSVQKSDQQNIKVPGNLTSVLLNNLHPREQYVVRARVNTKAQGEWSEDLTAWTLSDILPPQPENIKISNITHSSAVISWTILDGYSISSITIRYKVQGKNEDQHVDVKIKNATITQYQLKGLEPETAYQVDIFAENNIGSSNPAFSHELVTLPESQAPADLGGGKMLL

[3] = biological target: T1, recombinant cyno Tie2 extracellular …; assay: SPR, IgG captured, 37C
Description: as §1

[4] = biological target: T2, recombinant human Tie2 extracellular …; assay: SPR, IgG captured, 37C; remark: listed apart in the source
Description: as §1
Target sequence in this assay (Q02763 23-748 limits assumed): as above

[5] = biological target: T3, mouse Tie2 full extracellular domain fused to mIgG2a Fc (mouse, UniProt Q02858 23-746); assay: phage ELISA
T3 construct: extracellular domain; also called mFull.Fc; not shown: Fc region of mIgG2a, fused at the C-terminus
Description: Clones from the fourth round were screened for Tie2 binding and specificity by ELISA. Screening ELISAs were carried out by coating the wells of a 96-well microtiter plate with Tie2 protein or irrelevant protein at 65 ul per well (1 ug/ml in coating buffer) at 4° C. overnight. In a 96-tube plate, colonies from the fourth round were grown overnight at 37° C. in 400 ul 2YT media with 50 ug/ml carbenicillin and helper phage K07. The plate was spun down at 3000 rpm for 10 min. 30 ul of the culture supernatant was added with 60 ul of ELISA buffer (PBS with 0.5% BSA and 0.05% Tween20) to the Tie2-coated plate and incubated at room temperature for 1 hr. Plates were washed with PBS—0.05% Tween20 and 100 ul/well of horseradish peroxidase (HRP)-conjugated anti-M13 antibody (1/5000 dilution in PBS plus 0.5% BSA and 0.05% Tween20) at room temperature for 30 min (Sidhu et al., supra). The wells were washed with PBS—0.05% Tween20 prior to 100 ul/well of a 1:1 ratio of 3,3′,5,5′-tetramethylbenzidine (TMB) peroxidase substrate and Peroxidase Solution B (H₂O₂) ((Kirkegaard-Perry Laboratories (Gaithersburg, Md.)) being added per well and incubated for 5 min at room temperature. The reaction was stopped by adding 100 ul 1M phosphoric Acid (H₃PO₄) per well and the OD of wells was determined using a standard ELISA plate reader at 450 nm.

omalizumab = biological target: T4, omalizumab; assay: phage ELISA
T4 construct: Used as irrelevant coated protein; also called irrelevant Fc-containing protein; not shown: the constant regions

human Tie2ECD.flag = biological target: T5, human Tie2ECD.flag (human, UniProt Q02763 23-748); assay: Biacore, hIgG captured, 25C
T5 construct: also called hTie2.flag; not shown: C-terminal Flag tag
Description: (§2) Monovalent affinities of selected anti-Tie2 hIgGs were determined using a Biacore T200 instrument (GE Life Sciences). Anti-humanFc was covalently immobilized on a Series S CM5 Biacore sensor chip to enable non-covalent capture of anti-Tie2 antibodies and binding of human or rat Tie2ECD.flag was monitored in real time at 25° C. using a multi-cycle kinetics experiment format. Between cycles, the surface was regenerated with 3 M MgCl₂. Monovalent affinities were determined by kinetic analysis, using Biacore Evaluation Software (GE Life Sciences) to fit a 1:1 binding model to the data.

rat Tie2ECD.flag = biological target: T6, rat Tie2ECD.flag (rat, UniProt A0ABK0L6J5 19-740); assay: Biacore, hIgG captured, 25C
T6 construct: extracellular domain; also called rTie2.flag; not shown: C-terminal Flag tag
Description: as §2

[6] = biological target: T1, recombinant cyno Tie2 extracellular …; assay: SPR multi-cycle kinetics, IgG captured, kinetic analysis
Description: (§3) Binding to recombinant human and cyno Tie2 was analyzed using a high performance multi-cycle kinetics format with a contact time of 60 seconds, a dissociation time of 60 seconds, a flow rate of 100 μl/minute and Tie2 concentrations of 5 μM, 2.5 μM, 1.25 μM, 625 nM, 313 nM and 156 nM. Tie2 concentrations of 5 μM, 2.5 μM and 1.25 μM were injected twice. Results were analyzed using Biacore T200 Evaluation Software v3.0 (GE Life Sciences). Results from all three surface densities were analyzed together using the 1:1 Binding model with multiple Rmax and the RI parameter set to zero.

[7] = biological target: T1, recombinant cyno Tie2 extracellular …; assay: SPR, IgG captured, steady state analysis
Description: as §3

[8] = biological target: T2, recombinant human Tie2 extracellular …; assay: SPR, IgG captured, steady state analysis
Description: as §3

[9] = biological target: T1, recombinant cyno Tie2 extracellular …; assay: SPR multi-cycle kinetics, IgG captured, kinetic analysis; cyno Tie2; kinetic analysis
Description: as §3

[10] = biological target: T2, recombinant human Tie2 extracellular …; assay: SPR multi-cycle kinetics, IgG captured, kinetic analysis; human Tie2; kinetic analysis
Description: as §3

[11] = biological target: T2, recombinant human Tie2 extracellular …; assay: SPR multi-cycle kinetics, IgG captured, kinetic analysis
Description: Binding to 300 nM and 1500 nM recombinant Tie2 was analyzed at 37° C. using a Single Cycle Kinetics method with a contact time of 60 seconds, a dissociation time of 120 seconds and a flow rate of 50 μl/min. Between cycles, the surface was regenerated by a 30 second injection of 3M MgCl₂ at a flow rate of 30 μl/min. Values for antibody capture levels and analyte binding levels were obtained from the Report Point Table (Biacore Evaluation Software v3.0, GE Life Sciences). […] Table 16: Experiment A; Table 17: Experiment B.
as §3

T5 sequence (Q02763 23-748 limits assumed): as above

Binder | Normalized Binding Signal, 300 nM [1] | Normalized Binding Signal, 1500 nM [1] | Normalized Binding Signal, 300 nM [2] | Normalized Binding Signal, 1500 nM [2] | Normalized Binding Signal, 300 nM [3] | Normalized Binding Signal, 1500 nM [3] | Normalized Binding Signal, 300 nM [4] | Normalized Binding Signal, 1500 nM [4] | binding result [5] | binding result (omalizumab) | Kd (human Tie2ECD.flag) | Kd (rat Tie2ECD.flag) | koff [6] | kon [6] | Kd [7] | Kd [8] | Kd [9] | Kd [10] | koff [11] | kon [11]
Tie2.1.M100cI (antibody, IgG1, name in Kabat numbering, V domains shown, hIgG1) VH: EVQLVESGGGLVQPGGSLRLSCAASGFTFSNTDISWVRQAPGKGLEWVGRISPSDGNTYYADSVKGRFTISADTSKNTAYLQMNSLRAEDTAVYYCARRTRWASWAIDYWGQGTLVTVSS VL: DIQMTQSPSSLSASVGDRVTITCRASQDVSTAVAWYQQKPGKAPKLLIYSASFLYSGVPSRFSGSGSGTDFTLTISSLQPEDFATYYCQQSYTTPPTFGQGTKVEIKR | 0.03 | 0.12 | 0.04 | 0.14 | 0.03 | 0.13 | 0.03 | 0.14 | – | – | – | – | – | – | – | – | – | – | – | –
Tie2.33 (antibody, IgG1, V domains shown, hIgG1 in later assays; also called Ab33; T2.33) VH: EVQLVESGGGLVQPGGSLRLSCAASGFTFSGSWISWVRQAPGKGLEWVARINPYDGNTYYADSVKGRFTISADTSKNTAYLQMNSLRAEDTAVYYCARNNRFPTWFDYWGQGTLVTVSS VL: DIQMTQSPSSLSASVGDRVTITCRASQDVSTAVAWYQQKPGKAPKLLIYSASFLYSGVPSRFSGSGSGTDFTLTISSLQPEDFATYYCQQSYTTPPTFGQGTKVEIKR | – | – | – | – | – | – | – | – | binds | no binding | – | – | – | – | – | – | – | – | – | –
Tie2.34 (antibody, IgG1, V domains shown, hIgG1 in Biacore; also called Ab34) VH: EVQLVESGGGLVQPGGSLRLSCAASGFTFSDTYIHWVRQAPGKGLEWVAVIYPDNGATYYADSVKGTYYADSVKGRFTISADTSKNTAYLQMNSLRAEDTAVYYCAREFACARCVYGMDYWGQGTLVTVSS VL: DIQMTQSPSSLSASVGDRVTITCRASQDVSTAVAWYQQKPGKAPKLLIYSASFLYSGVPSRFSGSGSGTDFTLTISSLQPEDFATYYCQQSYTTPPTFGQGTKVEIKR | – | – | – | – | – | – | – | – | – | – | 155 nM | 57 nM | – | – | – | – | – | – | – | –
Tie2.1.M100cF (antibody, IgG1, V domains shown, hIgG1 in the SPR and binning assays) VH: EVQLVESGGGLVQPGGSLRLSCAASGFTFSNTDISWVRQAPGKGLEWVGRISPSDGNTYYADSVKGRFTISADTSKNTAYLQMNSLRAEDTAVYYCARRTRWASWAFDYWGQGTLVTVSS VL: DIQMTQSPSSLSASVGDRVTITCRASQDVSTAVAWYQQKPGKAPKLLIYSASFLYSGVPSRFSGSGSGTDFTLTISSLQPEDFATYYCQQSYTTPPTFGQGTKVEIK | 0.12 | 0.42 | 0.14 | 0.44 | 0.14 | 0.46 | 0.16 | 0.48 | – | – | – | – | 0.37 s⁻¹ | 190000 M⁻¹ s⁻¹ | 2000 nM | 2000 nM | 2000 nM | 2000 nM | 0.39 s⁻¹ | 220000 M⁻¹ s⁻¹
Tie2.1.M100cY (antibody, IgG1, name in Kabat numbering, V domains shown, hIgG1) VH: EVQLVESGGGLVQPGGSLRLSCAASGFTFSNTDISWVRQAPGKGLEWVGRISPSDGNTYYADSVKGRFTISADTSKNTAYLQMNSLRAEDTAVYYCARRTRWASWAYDYWGQGTLVTVSS VL: DIQMTQSPSSLSASVGDRVTITCRASQDVSTAVAWYQQKPGKAPKLLIYSASFLYSGVPSRFSGSGSGTDFTLTISSLQPEDFATYYCQQSYTTPPTFGQGTKVEIKR | 0.13 | 0.44 | 0.15 | 0.46 | 0.13 | 0.45 | 0.15 | 0.47 | – | – | – | – | – | – | – | – | – | – | – | –
Tie2.1.M100cL (antibody, IgG1, name in Kabat numbering, V domains shown, hIgG1) VH: EVQLVESGGGLVQPGGSLRLSCAASGFTFSNTDISWVRQAPGKGLEWVGRISPSDGNTYYADSVKGRFTISADTSKNTAYLQMNSLRAEDTAVYYCARRTRWASWALDYWGQGTLVTVSS VL: DIQMTQSPSSLSASVGDRVTITCRASQDVSTAVAWYQQKPGKAPKLLIYSASFLYSGVPSRFSGSGSGTDFTLTISSLQPEDFATYYCQQSYTTPPTFGQGTKVEIKR | 0.11 | 0.4 | 0.13 | 0.42 | 0.1 | 0.39 | 0.12 | 0.41 | – | – | – | – | – | – | – | – | – | – | – | –
